These results are taken from patent US6582902B1, “Method for deriving epitopes” (priority 1992, dated 2003).

This data set deals with g10-reactive antibodies (anti-g10 serum). Briefly: Competition for immunoprecipitation of [35S] g10-U1-A fusion protein by anti-g10 serum. In kind it is binding, rabbit. The source says:
Panel A: Western blot of E. coli extracts containing various U1-A protein constructs. All extracts were produced from induced E. coli cells containing recombinant pET-8c T7 expression vectors in accordance with known techniques. See F. Studier et al., Meth. Enzym. 185, 60-89 (1991). U1-A cDNA was cloned into pET-8c either attached or not attached to the g10 peptide. Lanes: 1, 5 and 9: the pET-8c vector alone; 2, 6 and 10: g10-U1-A protein; 3, 7 and 11: U1-A protein; 4, 8 and 12: total HeLa cell extracts. Lanes 1-4 were probed with pre-immune rabbit serum; lanes 5-8 were probed with anti-g10 serum; and lanes 9-12 were probed with a U1/U2-specific autoimmune serum (patient). EW reacts with U1 RNA, U1-70K (70 kDa), U1-A (31 kDa) and U2-A′ (28.4 kDa) (lane 12). Panel B: Immunoprecipitation and competition analysis of [^35S]-methionine-labeled U1-A and g10-U1-A proteins expressed by in vitro transcription, and subsequent translation in rabbit reticulocyte lysates. Lanes: 1 and 2 show the amount of U1-A and g10-U1-A translation product, respectively, added to each immunoprecipitation reaction; 3: blank; 4 and 5: U1-A and g10-U1-A precipitated with serum EW (reactive with U1-A); 6 and 7: U1-A and g10-U1-A, respectively, precipitated with anti-g10 serum. In lanes 8-12, g10-U1-A was precipitated with anti-g10 serum in the presence of varying amounts of competitors as follows: lanes 8-11 contained the g10 peptide at concentrations of 27.8, 83.3, 250 and 750 nM, respectively; lane 12 contained a control peptide (sequence GKSRGFAFVEFK-amide) (SEQ ID NO:4) at a concentration of 25 mM. The faint lower band in all lanes represents either a degradation product or a premature translation termination product and is seen consistently in U1-A translations.
[^32P] labeled in vitro transcribed D10 RNA or [^35S] labeled in vitro translated g10 fusion protein (g10-U1A) was immunoprecipitated by the anti-g10 serum in the presence of various competitors. D10 RNA and g10 fusion protein bound in the immunoprecipitations were analyzed using denaturing polyacrylamide gels and autoradiography. […]

B1: D10 RNA: single RNA species selected from the degenerate pool by anti-g10 serum (SEQ ID NO:3); U1 stem II with loop UGGUGGAGCA (nucleic acid)
chain: GGGCCACCAACGACAUUGGGCGAGGCUUAUCCUGGUGGAGCAGGAUGUGCUGACCCCGUUGAUAUAAAUAGUGCCCAUGGAUC
modifications: chemistry not given here
notes: U1 stem II with loop UGGUGGAGCA
Consider B1, for which the “competition with g10 fusion protein for binding to the antibody” value (FIG. 5C, 0.7 nM competitor RNA) is given as “able to compete”. In addition, the “competition with [35S] labeled g10 fusion protein, increasing amounts of competitor” value (FIG. 5D, 0.0175-1.05 nM D10 RNA) is “able to progressively compete”.
